Experimental data: patent publication US20080305099

What was measured:
Aβ42 = Aβ42 (UniProt P05067)
[1] = test system: ACTH (adrenocorticotropic hormone)
synthetic Aβ40 = synthetic Aβ40 (UniProt P05067)

“recombinant GCP-II protein purified from insect cells (Sf21)” was tested, and the “Western blot (anti-Aβ antibody 6E10) of Aβ matured for 7 days after 20 hours with rGCP-II” value (Aβ (length not stated)) was “Aβ in oligomer form (multimer) was reduced faster than Aβ monomer”, the “endogenous Aβ42 remaining (ELISA) in the medium of swAPP stable HEK293 colony #2 with 0, 0.5, 2.5 and 10 of rGCP-II” value (Aβ42) was “the level of endogenous Aβ42 was decreased” and the “MALDI-TOF molecular weight after reaction with GCP-II at 37° C. for 15 hours” value (“MALDI-TOF molecular weight” for short) [1] was “characteristically not degraded by GCP-II”. For the same substance, the “MALDI-TOF molecular weight” value (amylin) was “amylin showed two peaks at 1500 and 2000 after being reacted with GCP-II”, the “MALDI-TOF of Aβ40 reacted with GCP-II protein at more than 25 ng/µL” value (synthetic Aβ40) was “only one peak was observed at 2,167 which corresponds to Aβ18” and the “MALDI-TOF of Aβ40 reacted with GCP-II protein for 20 hours” value (synthetic Aβ40) was “two new peaks were observed at 3915 and 2662 in Aβ reacted with 0.5 ng/µM of GCP-II”. For the same substance, the “MALDI-TOF of Aβ reacted with GCP-II inactivated by heating (boiled rGCP-II)” value (synthetic Aβ40) was “Aβ was not degraded by the inactivated GCP-II” and the “MALDI-TOF molecular weight” value (insulin β-chain) was “characteristically not degraded by GCP-II”.
